Test [1] deals with healthy Black 6 mice injected with DPP3. Nature of the test: Effect of Valsartan in healthy mice injected with DPP3. The format is in vivo. The method, then:
The effect of an antagonist for the type I angiotensin II receptor (ATR1), Valsartan, in healthy mice injected with DPP3 was studied by monitoring the shortening fraction. In this experiment, healthy Black 6 mice (8-12 weeks, group size refer to table 8) consumed water with 50 mg/kg Valsartan per day or just water (Table 8) for a period of two weeks. Subsequently, both groups received an intravenous injection of native DPP3 (600 μg/kg) and the shortening fraction was assessed according to Gao et al., 2011 at 15, 60 and 120 minutes (FIG. 12).

The test system of test [2] is Patients with vasodilatory shock. The note with it: vasodilatory shock (80% in septic shock); cited from earlier work.
The subject of another test is normotensive mice. The note with it: cited from earlier work.
Test [3] deals with AngII-infused hypertensive mice. Particulars: cited from earlier work.
In the next test the test system is Wild type Black 6 mice. Nature of the test: Effect of native DPP3 injection in healthy mice. It counts as in vivo. The note with it: 600 μg/kg intravenously, compared to PBS control. The protocol:
The effect of native hDPP3 injection in healthy mice was studied by monitoring the shortening fraction and renal resistive index.
Wild type Black 6 mice (8-12 weeks, group size refer to table 3) were acclimated during 2 weeks and a baseline echocardiography was done. The mice were randomly allocated to one of the two groups and, subsequently, native DPP3 protein or PBS were injected intravenously via a retro-orbital injection with a dose of 600 μg/kg for DPP3 protein.
After DPP3 or PBS injection, cardiac function was assessed by echocardiography (Gao et al. 2011) and renal function assessed by renal resistive index (Lubas et al., 2014, Dewitte et al, 2012) at 15, 60 and 120 minutes (FIG. 3).

“Also recorded” adds a separate entry of the source.

Consider `CCCCC(=O)N(Cc1ccc(-c2ccccc2-c2nnn[nH]2)cc1)[C@H](C(=O)O)C(C)C` [Valsartan], for which the “shortening fraction after DPP3 injection” value in test [1] (50 mg/kg Valsartan per day in water for two weeks, then native DPP3 600 μg/kg intravenous) is recorded as “rescued; also recorded: no signs of heart dysfunction”.
For the molecule “Asp-Arg-Val-Tyr-Ile-His-Pro-Phe (DRVYIHPF; listed as Homo sapiens) [angiotensin II]”, in test [2], the hypotension entry is reported as “significant correction of hypotension” and the “survival to 28 days” value was “more likely to survive to 28 days”.

B1: native DPP3: native human Dipeptidyl peptidase 3 purified from human erythrocyte lysate (protein)
chain: ADTQYILPNDIGVSSLDCREAFRLLSPTERLYAYHLSRAAWYGGLAVLLQTSPEAPYIYALLSRLFRAQDPDQLRQHALAEGLTEEEYQAFLVYAAGVYSNMGNYKSFGDTKFVPNLPKEKLERVILGSEAAQQHPEEVRGLWQTCGELMFSLEPRLRHLGLGKEGITTYFSGNCTMEDAKLAQDFLDSQNLSAYNTRLFKEVDGEGKPYYEVRLASVLGSEPSLDSEVTSKLKSYEFRGSPFQVTRGDYAPILQKVVEQLEKAKAYAANSHQGQMLAQYIESFTQGSIEAHKRGSRFWIQDKGPIVESYIGFIESYRDPFGSRGEFEGFVAVVNKAMSAKFERLVASAEQLLKELPWPPTFEKDKFLTPDFTSLDVLTFAGSGIPAGINIPNYDDLRQTEGFKNVSLGNVLAVAYATQREKLTFLEEDDKDLYILWKGPSFDVQVGLHELLGHGSGKLFVQDEKGAFNFDQETVINPETGEQIQSWYRSGETWDSKFSTIASSYEECRAESVGLYLCLHPQVLEIFGFEGADAEDVIYVNWLNMVRAGLLALEFYTPEAFNWRQAHMQARFVILRVLLEAGEGLVTITPTTGSDGRPDARVRLDRSKIRSVGKPALERFLRRLQVLKSTGDVAGGRALYEGYATVTDAPPECFLTLRDTVLLRKESRKLIVQPNTRLEGSDVQLLEYEASAAGLIRSFSERFPEDGPELEEILTQLATADARFWKGPSEAPSGQA
On to B1, for which the blood pressure result in the test on normotensive mice is “no alteration in blood pressure”; in test [3] it was “reduced blood pressure”. Also, in test [3], the heart rate result is “without changing heart rate”. Moreover, the figures for the “renal resistive index (renal function)” value in the test with Wild type Black 6 mice and in the test on Wild type Black 6 mice (listed as DPP3) were “renal resistive index increase” and “increased renal resistive index”, respectively. The shortening fraction result in the test with Wild type Black 6 mice is “significantly reduced shortening fraction”; in the test with Wild type Black 6 mice (listed as DPP3), “shortening fraction reduction”; in test [1] (native DPP3 600 μg/kg intravenous, mice on water without Valsartan), “significant decrease in the shortening fraction”.

The values are drawn from US20220211798A1, “THERAPY GUIDANCE AND/OR THERAPY MONITORING FOR A TREATMENT WITH ANGIOTENSIN-RECEPTOR-AGONIST AND/OR A PRECURSOR THEREOF” (4TEEN4 PHARMACEUTICALS GMBH, priority 2018, published 2022).
